# Changes are numbered by the printed parent chain.
# T1: human AXL expressed on the cell surface of tumor cell lines (human, UniProt P30530 26-894)
# T1 construct: whole, on cells; also called cell surface-expressed AXL; cell-based AXL
# T1 sequence (looked up): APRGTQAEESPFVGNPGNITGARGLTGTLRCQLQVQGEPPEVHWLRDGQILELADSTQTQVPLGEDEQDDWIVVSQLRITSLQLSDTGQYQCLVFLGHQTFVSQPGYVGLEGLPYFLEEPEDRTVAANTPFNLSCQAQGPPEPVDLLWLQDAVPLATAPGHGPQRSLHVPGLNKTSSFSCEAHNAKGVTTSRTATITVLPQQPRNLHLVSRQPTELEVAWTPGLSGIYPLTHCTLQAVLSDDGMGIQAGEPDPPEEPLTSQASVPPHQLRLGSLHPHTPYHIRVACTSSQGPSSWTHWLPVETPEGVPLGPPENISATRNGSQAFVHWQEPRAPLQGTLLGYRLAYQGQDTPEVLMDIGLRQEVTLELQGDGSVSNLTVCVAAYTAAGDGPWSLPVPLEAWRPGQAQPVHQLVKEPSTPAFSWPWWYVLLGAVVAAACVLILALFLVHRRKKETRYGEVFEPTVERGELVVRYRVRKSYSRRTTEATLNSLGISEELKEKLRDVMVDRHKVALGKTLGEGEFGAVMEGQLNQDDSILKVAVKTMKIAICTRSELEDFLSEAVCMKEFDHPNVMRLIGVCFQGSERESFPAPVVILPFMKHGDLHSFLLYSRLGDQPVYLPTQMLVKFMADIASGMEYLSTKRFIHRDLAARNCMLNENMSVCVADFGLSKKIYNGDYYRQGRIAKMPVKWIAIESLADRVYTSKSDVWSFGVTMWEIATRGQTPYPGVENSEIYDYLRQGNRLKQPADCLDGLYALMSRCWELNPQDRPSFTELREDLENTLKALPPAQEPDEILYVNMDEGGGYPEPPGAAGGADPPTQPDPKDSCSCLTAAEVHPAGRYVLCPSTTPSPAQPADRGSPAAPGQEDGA
# T2: AXL fragment # 4 (AXL amino acids 219-335, FN III-1)
# T2 chain: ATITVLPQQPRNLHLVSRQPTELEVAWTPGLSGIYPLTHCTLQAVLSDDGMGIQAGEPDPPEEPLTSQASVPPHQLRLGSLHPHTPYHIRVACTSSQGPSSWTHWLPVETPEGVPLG
# T3: AXL fragment # 8 (AXL amino acids 219-450, FN III-1+FN III-2+)
# T3 construct: not shown: Yeast display carrier and tags (Aga2p, HA, MYC and any linkers)
# T3 chain: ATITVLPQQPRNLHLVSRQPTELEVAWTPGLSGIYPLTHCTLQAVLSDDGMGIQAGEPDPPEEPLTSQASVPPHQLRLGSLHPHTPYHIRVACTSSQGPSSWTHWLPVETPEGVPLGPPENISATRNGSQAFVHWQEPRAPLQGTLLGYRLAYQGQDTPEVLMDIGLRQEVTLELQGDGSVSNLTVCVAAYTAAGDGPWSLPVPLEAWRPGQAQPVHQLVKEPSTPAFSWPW
# T4: AXL fragment # 1 (AXL amino acids 135-226, IgL2)
# T4 chain: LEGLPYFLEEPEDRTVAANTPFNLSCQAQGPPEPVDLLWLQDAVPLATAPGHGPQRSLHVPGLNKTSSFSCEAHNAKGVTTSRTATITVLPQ
# T5: AXL fragment # 7 (AXL amino acids 135-335, IgL2+FN III-1)
# T5 chain: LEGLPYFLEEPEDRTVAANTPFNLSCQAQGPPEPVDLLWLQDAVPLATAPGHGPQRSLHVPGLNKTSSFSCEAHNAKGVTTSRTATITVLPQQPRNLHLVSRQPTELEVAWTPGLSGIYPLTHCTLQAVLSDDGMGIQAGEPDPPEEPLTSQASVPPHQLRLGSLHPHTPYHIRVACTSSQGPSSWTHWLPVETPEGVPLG
# T6: AXL fragment # 5 (AXL amino acids 321-450, FN III-2+)
# T6 chain: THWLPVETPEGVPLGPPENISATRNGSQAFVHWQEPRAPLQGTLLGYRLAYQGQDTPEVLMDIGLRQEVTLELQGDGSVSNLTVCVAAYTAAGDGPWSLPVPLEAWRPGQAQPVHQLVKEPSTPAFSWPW
# B1: F107-8D12 (antibody, V domains shown)
# VH: QVQLQQPGAELVKPGASVQLSCKASGYTFISFWINWVKQRPGQGLEWMGNIFPGSSSTNYNEKFKSKATLTVDKSSSTAYMQLSSLTSEDSAVYFCARDYYGGSPDYWGQGTTLTVSS
# VL: DIVMSQSPSSLAVSAGERVTMSCKSSQSLLNTRTRKNYLAWYQQKPGQSPKLLIYWASTRESGVPDRFTGSGSGTDFTLTISSVQAEDLAVYYCKQSYNLWTFGGGTKLEIK
# notes: also called F107-8D12-2; mAb 8D12
# B2: F107-7H5 (antibody, V domains shown)
# VH: QVQLQQPGAELVKPGASVKLSCKASGYTFTSYWINWVKQRPGQGLEWIGNIYPDSSSTNYNEKFKSKATLTVDKSSTTAYIQFSSLTSEDSAVYYCTRDTYGGSPDYWGQGTTLTVSS
# VL: B1 VL with R18K, T32S, N37I, E61Q
# notes: also called F107-7H5-2; mAb 7H5
# B3: F111-5E9 (antibody, V domains shown)
# VH: QIQLVQSGPELKKPGETVKISCKASGYTFTKYGMNWVKQAPGKGLKWMGWINTYTGEPTYADDFKGRFAFSLETSASTAYLQINNLTTEDMVTYFCAKGGYYSNPIYPMDYWGQGTSVTVSS
# VL: DIQMTQTTSSLSASLGDRVTISCRASQDINNYLNWYQQKPDGTVKLLIYYISRLHSGVPSRFSGSGSGTDYSLTISNLELEDVATYFCQQGNTLPFTFGSGTKLEIK
# notes: also called F111-5E9-2; mAb 5E9
# B4: F107-10G1 (antibody, V domains shown)
# VH: EVNLVESGGGVVKPGASLKLSCEASGFTFSNYGMSWVRQTSDKRLEWVASISGGGGRTYYLDNVKGRFIISRENAKNTLYLQMSSLKSEDTALFYCARGARASYFAMDYWGQGSSVTVSS
# VL: VIVMTQSHKFMSTSVGDRVSITCKASQDVTTAVAWYQQKPGQSPKLLIYWASTRHTGVPDRFTGSGSGTDYSLTISNVQTEDLAFYYCQQHFTTPLTFGAGTKLELK
# notes: also called F107-10G1-3
# B5: F111-3C8 (antibody, V domains shown)
# VH: QVQLQQPGAELGKPGTSVKLSCKASGYTFTSYWMHWVKRVPGQGLEWIGNINPNSTSADYNEKFKRKATLTVDKSSSTAYMQLSTLTSEDSAVYYCTRPLMGPYWYFDVWGTGTTVTVSS
# VL: QIVLTQSPAIMSASPGEKVTISCSASSSVSYMYWYQQKPGSSPKPWIYRTSNLASGVPARFSGSGSGTSYSLTISSMEAEDAATYYCQQYHNYPPTFGGGTKLEIK
# notes: also called F111-3C8-2
# Target: T1, human AXL expressed on the cell surface …
# Assay: flow cytometry on H292 cells, apparent cell binding constant
# Procedure: (§1) Detection of antibody binding to surface AXL by flow cytometry. Prior to analysis, cells were plated such that they were not more than 80% confluent on the day of analysis. Cells were washed in PBS and harvested by the addition of cell dissociation buffer (Sigma). A cell suspension containing 2.5×10⁵ cells (in 500 μl corresponding cell culture media) was incubated with various concentrations (0.01-10 nM) of anti-AXL antibodies for 2 h at 4° C. (to prevent internalization). Following one wash with cell culture media, primary antibody was incubated with 2 μg DYLIGHT™ 488 conjugated AffiniPure goat anti-mouse IgG Alexa 488 secondary antibody (Jackson ImmunoResearch) in 100 μl of media for 1 h at 4° C. Prior to analysis, cell pellets were re-suspended in 300-500 μl media and filtered through a 50 μm nylon mesh filter to remove cell aggregates. Flow cytometry analyses were performed on 10,000 viable cells gated on forward scattering, side scattering parameters and propidium iodide dye exclusion using a BD LSRII flow Cytometer (Becton-Dickinson Biosciences, CA, USA) and a standard filter set using BD FACSDiva™ acquisition software, according to manufacturer's instructions.
# (§2) Specific detection of antibody binding was calculated as the mean fluorescent intensity of binding to each primary antibody after background level subtraction of the mean fluorescent intensity of binding in the absence of primary antibody (but containing detection antibody). Binding parameters Bmax, (maximum fluorescence signal at receptor saturation), and KD (apparent cell binding constant) were then determined using a One site—Specific binding with Hill slope model in GraphPad Prism v 6.0.
row,Kd [nM],Binder
1,0.088,B1
2,0.104,B2
3,0.177,B3
4,0.101,B4
5,1.23,B5

# Target: T1, human AXL expressed on the cell surface …
# Assay: flow cytometry on H292 cells, one site-specific binding with Hill slope
# Procedure: as §1, §2
row,Bmax [MFI],Binder
1,1310,B1
2,1430,B2
3,1150,B3
4,937,B4
5,1480,B5

# Target: T2, AXL fragment # 4 (AXL amino acids …)
# Assay: yeast surface display of hAXL fragments, whole yeast cell ELISA, signal normalised to anti-MYC
# Source text: (§3) Epitope mapping. […] The YSD vector (pPNL6) was from The Pacific Northwest National Laboratory, USA.
row,binding result,Binder
1,no binding,B1
2,no binding,B2
3,no binding,B3
4,no binding,B4
5,no binding,B5

# Target: T3, AXL fragment # 8 (AXL amino acids …)
# Assay: as above
# Source text: as §3
row,binding result,Binder
1,no binding,B1
2,no binding,B2
3,no binding,B3
4,no binding,B4
5,no binding,B5

# Target: T4, AXL fragment # 1 (AXL amino acids …)
# Assay: as above
# Source text: as §3
row,binding result,Binder
1,no binding,B1
2,no binding,B2
3,no binding,B4

# Target: T5, AXL fragment # 7 (AXL amino acids …)
# Assay: as above
# Source text: as §3
row,binding result,Binder
1,no binding,B1
2,no binding,B2
3,no binding,B4

# Target: T6, AXL fragment # 5 (AXL amino acids …)
# Assay: as above
# Source text: as §3
row,binding result,Binder
1,no binding,B1
2,no binding,B2
3,no binding,B3
4,no binding,B4
5,no binding,B5

# Reference: patent publication US20240076389A1 (NATIONAL RESEARCH COUNCIL OF CANADA, published 2024)
